Measured values taken from the supplement of paper PMC10724198.
± gives the standard deviation of the averaged measurements.

These sequences were tested on Saccharomyces cerevisiae (assay: protein stability index of tFT-peptide fusion (C-terminal peptide) (PSI (0-1 scale)); higher = more stable (slower turnover)). Details: genetic background: wild type; temperature: 30 C.
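Further: PSI is a weighted mean of sequencing reads over stability bins, variants kept only with over 10 reads, mCherry proximal and sfGFP distal, peptide attached via GGGS linker.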

Sequence | protein stability index
NVEFVVERIREK | 0.6 ± 0.027
NVNMGSRGQFNF | 0.628 ± 0.026
NVRVLKCLWGVG | 0.619 ± 0.029
NVTCRPDKNELT | 0.643 ± 0.035
NYDTIYGLHLYT | 0.73 ± 0.015
NYSINQKNRKKN | 0.737 ± 0.013
PAAPGLDLRHDP | 0.623 ± 0.037
PAFGCTSRPFPG | 0.711 ± 0.031
PAGILMQDSRRA | 0.589 ± 0.051
PAPLSPTHPPLP | 0.71 ± 0.053
PAPPAALPPPHP | 0.637 ± 0.077
PAPPHPPFPLLP | 0.705 ± 0.018
PAPPLRVAPSRI | 0.67 ± 0.014
PAPPPLLPPPPP | 0.597 ± 0.016
PAPPPLPSSSPP | 0.696 ± 0.0019
PAPPPPLPLHPR | 0.664 ± 0.046
PAPPPPRRPLPP | 0.657 ± 0.0086
PAPPPRPLPSPP | 0.713 ± 0.2
PAPPPSPRILLL | 0.542 ± 0.042
PAPPRYPLSSSS | 0.633 ± 0.011
PAPRPPSPLSAP | 0.687 ± 0.039
PAPSYHPVSPTA | 0.713 ± 0.0096
PAPTRPSPPPLP | 0.641 ± 0.013

Sequence | protein stability index
PASPPSPLLLSL | 0.74 ± 0.066
PAVFPSLENVAL | 0.732 ± 0.046
PCINGSASRRSG | 0.6189 ± 0.0058
PCLASHTVDSLP | 0.665 ± 0.013
PCLLTNLPILPT | 0.626 ± 0.077
PCLQQCLLIFLP | 0.566 ± 0.015
PCMCKRNKQYRG | 0.649 ± 0.016
PCPSVLPISLPH | 0.713 ± 0.06
PCRPPSILAPHP | 0.739 ± 0.0097
PCSVLVWGVLLP | 0.622 ± 0.032
PCYCSAPRRSWA | 0.749 ± 0.04
PDCLSLCFSLFP | 0.664 ± 0.0071
PDCVLSDENDAG | 0.658 ± 0.0076
PDLGRQPGGSET | 0.647 ± 0.052
PDYNEIIEYTEG | 0.706 ± 0.033
PEEGQNASVRPC | 0.694 ± 0.023
PERPPVARATRP | 0.718 ± 0.049
PFFLVSPEPLSI | 0.666 ± 0.058
PFFPSSFALLRS | 0.7166 ± 0.0067
PFFPVALPFPHL | 0.7 ± 0.021
PFFSSRLFTLSL | 0.731 ± 0.015
PFLCCPRMSHFL | 0.705 ± 0.013
PFLPSPPPPVPI | 0.712 ± 0.045

Sequence | protein stability index
PFPAFPPVTSPP | 0.85 ± 0.054
PFPLPPPPFHPP | 0.691 ± 0.014
PFPPPTDQTAHR | 0.728 ± 0.025
PFPPTPSPAPPL | 0.7097 ± 0.0025
PFRSFSPPPRAP | 0.742 ± 0.17
PFRSPFSSSPTF | 0.7772 ± 0.0077
PFSLTTLFSPLL | 0.691 ± 0.031
PFSPLVPPLSFS | 0.76 ± 0.086
PFSSFLSLFPIL | 0.7 ± 0.0084
PFVSHLDRWDIR | 0.712 ± 0.041
PFYTKSASPSSR | 0.669 ± 0.02
PGAHPVTLTIRL | 0.647 ± 0.027
PGHRVLKILHLR | 0.551 ± 0.055
PGITRKTKKEKK | 0.701 ± 0.041
PGLGISHARCCF | 0.695 ± 0.016
PGLPFAPLPPPL | 0.733 ± 0.014
PGPPPPPPPLYP | 0.6947 ± 0.0063
PGPPSPPPPLYP | 0.6783 ± 0.0056
PGQRSRGPPGRA | 0.737 ± 0.076
PGQSSPLPPDVS | 0.653 ± 0.078
PGRSATSCPFLG | 0.671 ± 0.019
PGSCGATTRCLH | 0.481 ± 0.075
PGWPISNLGHAL | 0.634 ± 0.077

Sequence | protein stability index
PHFLLLEDRPQT | 0.705 ± 0.02
PHGPPAHLRSRP | 0.737 ± 0.015
PHHPPAHPPTPP | 0.683 ± 0.023
PHHPPPPLPCVV | 0.632 ± 0.071
PHHRRVVRPPTA | 0.704 ± 0.013
PHNTPRPELLPP | 0.613 ± 0.11
PHPAPPPNPLVP | 0.739 ± 0.017
PHPCSPAPPWPL | 0.694 ± 0.028
PHPHRPPRSFLL | 0.704 ± 0.1
PHPLPSHPLPPP | 0.738 ± 0.023
PHPLSPRPPPSL | 0.746 ± 0.013
PHPPFLFPPPCP | 0.71 ± 0.051
PHPPLPPLLPPA | 0.741 ± 0.082
PHPPLPPPPYLL | 0.667 ± 0.016
PHPPPSLLPSAP | 0.7612 ± 0.0037
PHPTPSLPHSSP | 0.827 ± 0.043
PHQCLSFPPRFK | 0.744 ± 0.082
PHSASSVSYTLY | 0.701 ± 0.052
PHSPSHTPVYPR | 0.694 ± 0.011
PHSPSPSWFWPR | 0.76 ± 0.058
PHSSFSLAPPIP | 0.696 ± 0.01
PHTLPPLPVSPT | 0.67 ± 0.05
PHVLAALTSYTP | 0.68783 ± 0.00064

Sequence | protein stability index
PHVSGYTVLIWF | 0.5588 ± 0.0054
PICAWGRPRTPM | 0.7639 ± 0.0017
PIDHCFPPIPRR | 0.737 ± 0.035
PILPTSAPSDPR | 0.724 ± 0.12
PIPHHLRVASPA | 0.6162 ± 0.00068
PISPPLPRPSPR | 0.696 ± 0.012
PIVSISLGIGSS | 0.6758 ± 0.001
PKAMRPKLVVFR | 0.682 ± 0.024
PKHQPSLLPNHH | 0.615 ± 0.026
PKKREKKKKKEK | 0.66 ± 0.073
PKSTDVPPVRRE | 0.686 ± 0.088
PKVRQLLLTRVL | 0.547 ± 0.022
PKYYTTTDRLRV | 0.622 ± 0.02
PLAALPLALSLP | 0.6575 ± 0.0055
PLALPLHLPLPP | 0.667 ± 0.034
PLALSPNPLSRT | 0.679 ± 0.045
PLAPPHRPALLM | 0.568 ± 0.034
PLCLLLLNPPTL | 0.682 ± 0.012
PLCVPPRRLFPP | 0.716 ± 0.072
PLFFLPLPPPLF | 0.6881 ± 0.0046
PLFLLLPALSIP | 0.595 ± 0.029
PLFRTPPPRPSP | 0.673 ± 0.14
PLFSFLPPPLPP | 0.697 ± 0.017

Sequence | protein stability index
PLGPLLSPLSPP | 0.743 ± 0.014
PLGPRFLPLVLP | 0.682 ± 0.021
PLGVPPPAPSSP | 0.6943 ± 0.0024
PLHPPPPPPPPT | 0.69 ± 0.034
PLLHPPPRASLL | 0.792 ± 0.13
PLLLPLFSSSPP | 0.777 ± 0.085
PLLLYFLPPLPL | 0.629 ± 0.039
PLLPYPFPPPLS | 0.784 ± 0.04
PLLTFSPLPGLS | 0.696 ± 0.034
PLLTPPPVLHHP | 0.741 ± 0.035
PLLVLSLRLSPP | 0.664 ± 0.013
PLPALRPGAAPH | 0.7457 ± 0.0023
PLPAPPSTPSSP | 0.715 ± 0.034
PLPAPPTPPLPP | 0.763 ± 0.039
PLPARFPPSPPS | 0.743 ± 0.074
PLPFLPPPPCPP | 0.696 ± 0.036
PLPFPFPLCSQS | 0.64 ± 0.1
PLPFPPPPPSPY | 0.655 ± 0.086
PLPLPSTALPPS | 0.632 ± 0.063
PLPPISSFPSLS | 0.703 ± 0.028
PLPPLFLPPPPL | 0.708 ± 0.021
PLPPLLLPPPLP | 0.703 ± 0.046
PLPPPLPQAPPT | 0.695 ± 0.021

Sequence | protein stability index
PLPPPPAPPLPP | 0.647 ± 0.024
PLPPPPLLPFVL | 0.774 ± 0.085
PLPPPPTPPVPV | 0.672 ± 0.015
PLPPRPSPPPPL | 0.705 ± 0.013
PLPPSSSPSSLP | 0.71 ± 0.077
PLPPTAPPHPPP | 0.671 ± 0.096
PLPQVLYPPPPS | 0.6905 ± 0.0045
PLPRLRRPAPPH | 0.667 ± 0.055
PLPRPPPPSCPP | 0.654 ± 0.076
PLPRPPPTATGD | 0.687 ± 0.013
PLPRSPRPSAPP | 0.622 ± 0.034
PLPSAPLLPPPP | 0.686 ± 0.056
PLPVLLLPGHLP | 0.733 ± 0.054
PLPYSPPHPVPP | 0.701 ± 0.029
PLRDHPAPPHRL | 0.665 ± 0.068
PLRESSTRPSLL | 0.684 ± 0.055
PLRLPPAPPFPL | 0.824 ± 0.075
PLRLPPAPPPPP | 0.617 ± 0.015
PLRPAPVLYPAF | 0.654 ± 0.012
PLRPPRPPPPPF | 0.726 ± 0.052
PLRRRPFAPPPP | 0.535 ± 0.034
PLSFHPHLTSSP | 0.671 ± 0.013
